Blank lines part the entries; values can stand above or below the molecule they belong to.
How the values were obtained:
[1] = target: human von Willebrand factor (human) (UniProt P04275); assay: SPR, Biacore 3000, vWF amine-coupled to CM5 chip, global fit to a simple interaction model
[2] = target: T1, human von Willebrand factor (human, UniProt P04275 764-2813, limits assumed); assay: as above
T1 construct: The preparation used in the assay is not described; also called vWF
Description: The binding of human-cl rhFVIII to human von Willebrand factor was analyzed using surface plasmon resonance with the Biacore 3000 instrument. The recombinant factor VIII products X and Y derived from murine cell lines (murine-cl rhFVIII X and Y) were used as comparators.
The von Willebrand factor was immobilized through primary amines to the carboxymethylated dextran of a CM5 sensor chip. The binding data were globally fit to a simple interaction model yielding kinetic parameters and affinities. The kinetics in binding and affinity to von Willebrand factor were analyzed. Furthermore, a quantitative measure of the capacity of Human-cl rhFVIII to bind to von Willebrand factor in comparison with other recombinant factor VIII products was obtained.

Kd [1]: 0.34 nM
koff [1]: 0.00105 s⁻¹
kon [1]: 3.1e+06 M⁻¹ s⁻¹
Molecule: murine-cl rhFVIII Y (recombinant factor VIII product Y derived from a murine cell line) (from UniProt P00451 20-2351)

Kd [1]: 0.32 nM
koff [1]: 0.00105 s⁻¹
kon [1]: 3.3e+06 M⁻¹ s⁻¹
Molecule: murine-cl rhFVIII X (recombinant factor VIII product X derived from a murine cell line) (from UniProt P00451 20-2351)

Kd [2]: 0.21 nM
koff [2]: 0.00095 s⁻¹
kon [2]: 4.5e+06 M⁻¹ s⁻¹
B1: human cell line recombinant human factor VIII (human-cl rhFVIII), a human B-domain-deleted factor VIII protein produced in the human cell line HEK293F (other, UniProt P00451 20-2351, looked up)
chain: ATRRYYLGAVELSWDYMQSDLGELPVDARFPPRVPKSFPFNTSVVYKKTLFVEFTDHLFNIAKPRPPWMGLLGPTIQAEVYDTVVITLKNMASHPVSLHAVGVSYWKASEGAEYDDQTSQREKEDDKVFPGGSHTYVWQVLKENGPMASDPLCLTYSYLSHVDLVKDLNSGLIGALLVCREGSLAKEKTQTLHKFILLFAVFDEGKSWHSETKNSLMQDRDAASARAWPKMHTVNGYVNRSLPGLIGCHRKSVYWHVIGMGTTPEVHSIFLEGHTFLVRNHRQASLEISPITFLTAQTLLMDLGQFLLFCHISSHQHDGMEAYVKVDSCPEEPQLRMKNNEEAEDYDDDLTDSEMDVVRFDDDNSPSFIQIRSVAKKHPKTWVHYIAAEEEDWDYAPLVLAPDDRSYKSQYLNNGPQRIGRKYKKVRFMAYTDETFKTREAIQHESGILGPLLYGEVGDTLLIIFKNQASRPYNIYPHGITDVRPLYSRRLPKGVKHLKDFPILPGEIFKYKWTVTVEDGPTKSDPRCLTRYYSSFVNMERDLASGLIGPLLICYKESVDQRGNQIMSDKRNVILFSVFDENRSWYLTENIQRFLPNPAGVQLEDPEFQASNIMHSINGYVFDSLQLSVCLHEVAYWYILSIGAQTDFLSVFFSGYTFKHKMVYEDTLTLFPFSGETVFMSMENPGLWILGCHNSDFRNRGMTALLKVSSCDKNTGDYYEDSYEDISAYLLSKNNAIEPRSFSQNSRHQAYRYRRGEITRTTLQSDQEEIDYDDTISVEMKKEDFDIYDEDENQSPRSFQKKTRHYFIAAVERLWDYGMSSSPHVLRNRAQSGSVPQFKKVVFQEFTDGSFTQPLYRGELNEHLGLLGPYIRAEVEDNIMVTFRNQASRPYSFYSSLISYEEDQRQGAEPRKNFVKPNETKTYFWKVQHHMAPTKDEFDCKAWAYFSDVDLEKDVHSGLIGPLLVCHTNTLNPAHGRQVTVQEFALFFTIFDETKSWYFTENMERNCRAPCNIQMEDPTFKENYRFHAINGYIMDTLPGLVMAQDQRIRWYLLSMGSNENIHSIHFSGHVFTVRKKEEYKMALYNLYPGVFETVEMLPSKAGIWRVECLIGEHLHAGMSTLFLVYSNKCQTPLGMASGHIRDFQITASGQYGQWAPKLARLHYSGSINAWSTKEPFSWIKVDLLAPMIIHGIKTQGARQKFSSLYISQFIIMYSLDGKKWQTYRGNSTGTLMVFFGNVDSSGIKHNIFNPPIIARYIRLHPTHYSIRSTLRMELMGCDLNSCSMPLGMESKAISDAQITASSYFTNMFATWSPSKARLHLQGRSNAWRPQVNNPKEWLQVDFQKTMKVTGVTTQGVKSLLTSMYVKEFLISSSQDGHQWTLFFQNGKVKVFQGNQDSFTPVVNSLDPPLLTRYLRIHPQSWVHQIALRMEVLGCEAQDLY
notes: B-domain-deleted construct made in HEK293F cells

Reference: patent US20110262424A1 (published 2011)
